# Assay results as given in doi:10.1101/2022.06.13.496009.
# T1: SALL4 ZFC4 (human, UniProt Q9UJQ4 856-930)
# T1 sequence: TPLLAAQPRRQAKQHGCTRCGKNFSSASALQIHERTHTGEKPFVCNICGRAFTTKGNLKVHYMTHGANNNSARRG
# Target: T1, SALL4 ZFC4
# Assay: ITC
binder,measurement,value
12-mer T3C/A3'G (dsDNA) DNA 1: GGCAATATTTCC DNA 2: GGAAATATTGCC,Kd,~9.95 µM
